Source: article PMC6150732

Molecular target: encapsulin from Brevibacterium linens (Brevibacterium linens)
Assay: cryo-EM structure

Substance	stoichiometry N (subunits per particle)	stoichiometry N (DyP hexamer per encapsulin particle)
encapsulin from Brevibacterium linens (natural protein)	60	
dye-decolorizing peroxidase (DyP) from Brevibacterium linens (enzyme)		1
